Measured values taken from PMC12404239.

Molecular target: CoV OC43 spike glycoprotein (S) (human coronavirus OC43) (UniProt P36334)
Test: […], running buffer TBS, […]

## CoV OC43 spike glycoprotein (S) (from UniProt P36334 14-1263) (natural protein)
  stoichiometry N: 3
